Legend:
Test in all cases: cryo-EM structure; TRAPPII purified from yeast, incubated with tenfold molar excess of Rab11/Ypt32-7xHis and calf intestine alkaline phosphatase at 4°C overnight (nucleotide-free Rab), complex purified on Calmodulin Sepharose and by SEC; 10 mM tris (pH 8.0), 150 mM NaCl, 0.1% CHAPS, 1 mM Mg acetate, 1 mM dithiothreitol; single-particle cryo-EM
Details in all cases: both partners purified
[1] = biological target: T1, Trs33 (TRAPP core subunit, in purified TRAPPII) (S. cerevisiae, UniProt Q99394 1-268)
T1 construct: Trs33, S. cerevisiae, endogenous; source: endogenous, purified from S. cerevisiae as a subunit of TRAPPII
T1 sequence (looked up): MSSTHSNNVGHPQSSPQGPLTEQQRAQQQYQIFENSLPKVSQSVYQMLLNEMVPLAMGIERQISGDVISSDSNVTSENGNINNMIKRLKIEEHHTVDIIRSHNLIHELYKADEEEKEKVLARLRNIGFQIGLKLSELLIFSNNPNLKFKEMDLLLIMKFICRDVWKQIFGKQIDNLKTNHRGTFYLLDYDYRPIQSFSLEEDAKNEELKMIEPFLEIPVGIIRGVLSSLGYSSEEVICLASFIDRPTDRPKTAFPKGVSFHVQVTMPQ

[2] = biological target: T2, Bet3 (TRAPP core subunit, in purified TRAPPII) (S. cerevisiae, UniProt P36149 1-193)
T2 construct: Bet3, S. cerevisiae, endogenous; source: endogenous, purified from S. cerevisiae as a subunit of TRAPPII
T2 sequence (looked up): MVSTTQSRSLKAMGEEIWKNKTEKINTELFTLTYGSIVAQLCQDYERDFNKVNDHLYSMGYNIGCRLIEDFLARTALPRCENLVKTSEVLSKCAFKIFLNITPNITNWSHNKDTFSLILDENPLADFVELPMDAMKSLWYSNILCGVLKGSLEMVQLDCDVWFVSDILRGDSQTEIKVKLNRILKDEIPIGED

[3] = biological target: T3, Trs130 (TRAPPII-specific subunit, in purified TRAPPII) (S. cerevisiae, UniProt Q03660 1-1102)
T3 construct: Trs130, S. cerevisiae, endogenous copy tagged at the C terminus; source: endogenous, purified from S. cerevisiae as a subunit of TRAPPII; not shown: held on Calmodulin Sepharose), C-terminal, kept
T3 sequence (looked up): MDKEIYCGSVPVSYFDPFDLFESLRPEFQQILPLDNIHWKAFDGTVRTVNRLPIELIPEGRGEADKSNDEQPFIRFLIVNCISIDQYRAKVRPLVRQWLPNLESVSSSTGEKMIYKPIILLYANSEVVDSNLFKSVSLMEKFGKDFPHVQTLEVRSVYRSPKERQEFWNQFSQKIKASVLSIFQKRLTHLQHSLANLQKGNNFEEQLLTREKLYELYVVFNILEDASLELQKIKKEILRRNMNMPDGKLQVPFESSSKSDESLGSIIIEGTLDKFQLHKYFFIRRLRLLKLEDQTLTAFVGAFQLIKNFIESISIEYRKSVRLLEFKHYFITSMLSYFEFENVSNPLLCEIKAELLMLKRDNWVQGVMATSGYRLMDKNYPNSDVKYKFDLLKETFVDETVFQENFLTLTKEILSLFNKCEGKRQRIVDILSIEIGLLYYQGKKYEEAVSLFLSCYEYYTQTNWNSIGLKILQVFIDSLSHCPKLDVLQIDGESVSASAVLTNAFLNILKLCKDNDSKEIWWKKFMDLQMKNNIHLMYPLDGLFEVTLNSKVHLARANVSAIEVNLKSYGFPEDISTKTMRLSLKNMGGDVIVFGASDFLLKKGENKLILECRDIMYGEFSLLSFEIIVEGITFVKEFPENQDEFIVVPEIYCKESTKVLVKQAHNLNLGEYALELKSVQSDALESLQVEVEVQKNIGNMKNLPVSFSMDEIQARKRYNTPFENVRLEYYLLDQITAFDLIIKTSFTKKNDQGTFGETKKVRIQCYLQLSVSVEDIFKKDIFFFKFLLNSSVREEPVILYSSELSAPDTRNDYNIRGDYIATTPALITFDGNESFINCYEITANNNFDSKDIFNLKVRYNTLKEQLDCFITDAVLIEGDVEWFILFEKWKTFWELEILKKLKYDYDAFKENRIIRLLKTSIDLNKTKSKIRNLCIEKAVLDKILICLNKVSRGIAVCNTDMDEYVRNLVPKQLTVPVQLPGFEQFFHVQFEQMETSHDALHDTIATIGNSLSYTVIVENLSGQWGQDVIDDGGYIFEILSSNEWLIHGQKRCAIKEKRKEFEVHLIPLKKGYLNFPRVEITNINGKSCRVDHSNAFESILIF

binding result [1]: binds | binding result [2]: binds | binding result [3]: binds
B1: Tca17 (TRAPPII subunit, in purified TRAPPII) (natural protein, S. cerevisiae, UniProt P32613 1-152, looked up)
chain: MSLRPCFVSLIDESDKPILIYVPNEAENEMNDVLKYNVLSNISLDYFESALVEWHSLDSKPLLKSIFQLEGVSVFAMLIKQTGLKIVIGFEQKSLSGADDEFEAINQIFETVRKIYIRVKCNPLLVSGDEKSIIKSLERKFDELFISTEVEL
notes: Tca17, S. cerevisiae, endogenous; source: endogenous, purified from S. cerevisiae as a subunit of TRAPPII
